Read-outs that look alike come from different tables or passages of the source.
PDHA1: K83R
degradation_or_half_life (other: succinylation at K83): no change | enzymatic_activity (other: succinylation at K83): decreases | other (other: succinylation at K83): increases

PDHA1: K83R S293A (compared with K83R)
enzymatic_activity (phosphorylation at S293): increases
